Source: patent publication US12281181
Numbered stars: 1 amine (or outer) side, 2 acyl side, 3 side chain; on linkers, the order of the positions; unused ones are H or OH. Bridge positions count the residues as written; N and C are the ends. Square brackets hold non-standard residues; d marks the D form. Ends that are not written are not given here. Trimesoyl = O=C(c1cc(C(=O)[*:2])cc(C(=O)[*:3])c1)[*:1]; 2Nal = N[C@@H](Cc1ccc2ccccc2c1)C(=O)O; Dap = NC[C@H](N)C(=O)O; βAla = NCCC(=O)O

Key:
[1] = target: T1, Recombinant GST-NEMO (NEMO(1-196)) (UniProt Q9Y6K9 1-196, biotinylated in the library screen); experiment: HTRF competition IC50, alanine scan against peptide 7
T1 construct: range 1-196; Expressed in E. coli BL21(DE3); also called NF-κB essential modulator; IKKγ; not shown: glutathione S-transferase (GST) tag encoded by the pGEX4T3 vector

[2] = target: T1, Recombinant GST-NEMO (NEMO(1-196)); experiment: HTRF competition, GST-NEMO + biotin-IKKβKK/RR(701-745), peptide 0-100 µM
[3] = target: NEMO (endogenous, inside cultured cells) (UniProt Q9Y6K9 1-419); experiment: cell-based or functional assay
[4] = target: T1, Recombinant GST-NEMO (NEMO(1-196)); experiment: HTRF competition IC50, peptide 7 against peptide 6
[5] = target: T1, Recombinant GST-NEMO (NEMO(1-196)); experiment: HTRF competition IC50 against peptide 7
[6] = target: T1, Recombinant GST-NEMO (NEMO(1-196)); experiment: fluorescence anisotropy (FA), direct binding
[7] = target: T1, Recombinant GST-NEMO (NEMO(1-196)); experiment: HTRF competition, GST-NEMO + biotin-IKKβKK/RR(701-745)

T1 sequence (Q9Y6K9 1-196): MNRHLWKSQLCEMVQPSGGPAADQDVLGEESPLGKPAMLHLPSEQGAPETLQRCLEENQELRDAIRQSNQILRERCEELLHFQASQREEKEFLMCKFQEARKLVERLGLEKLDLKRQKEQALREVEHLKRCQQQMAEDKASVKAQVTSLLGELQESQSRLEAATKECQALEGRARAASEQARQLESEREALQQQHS
Sequence of NEMO (endogenous, inside cultured cells) (Q9Y6K9 whole entry): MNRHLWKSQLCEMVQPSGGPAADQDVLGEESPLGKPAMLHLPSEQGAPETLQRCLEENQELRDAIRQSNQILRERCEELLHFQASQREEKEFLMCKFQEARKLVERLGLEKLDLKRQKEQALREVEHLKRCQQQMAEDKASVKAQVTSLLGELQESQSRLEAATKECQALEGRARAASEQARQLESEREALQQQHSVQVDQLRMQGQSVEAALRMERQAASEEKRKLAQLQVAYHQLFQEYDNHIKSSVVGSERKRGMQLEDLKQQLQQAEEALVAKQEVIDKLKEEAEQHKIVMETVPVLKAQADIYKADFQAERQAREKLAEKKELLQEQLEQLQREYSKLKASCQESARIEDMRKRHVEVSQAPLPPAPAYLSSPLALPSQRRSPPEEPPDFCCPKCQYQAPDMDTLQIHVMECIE

| Binder | IC50 [2] | also measured |
| --- | --- | --- |
| GWIYA[Dap]F[2Nal]R[dA]R[Dap][βAla][βAla]K (linker (positions not given here) via trimesic acid; not fully specified (bridges); printed as Tm(GWIYA)Δ(FΦRaRΔ)-BBK) [peptide 18] | 2100 nM |  |
| GWIAA[Dap]F[2Nal]R[dR]R[Dap][βAla][βAla]K (linker (positions not given here) via trimesic acid; not fully specified (bridges); printed as Tm(GWIAA)Δ(FΦRrRΔ)-BBK) [peptide 14] | 2800 nM |  |
| AGWIY[Dap]F[2Nal]R[dR]R[Dap][βAla][βAla]K (linker (positions not given here) via trimesic acid; not fully specified (bridges); printed as Tm(AGWIY)Δ(FΦRrRΔ)-BBK) [peptide 9] | 2200 nM |  |
| GWIYA[Dap]F[2Nal]R[dR]R[Dap][βAla][βAla]K (linker N-6-12 via Trimesoyl; not fully specified (N-terminus); printed as Tm(GWIYA)Δ(FΦRrRΔ)-BBK) [peptide 7] | 1000 nM | inhibition of TNFα-induced NF-κB activation, luciferase in HEK293(Luc) cells, IC50 [3]: 10000 nM; fold increase in binding affinity against peptide 6 [4]: 5.9 fold |
| GWAYA[Dap]F[2Nal]R[dR]R[Dap][βAla][βAla]K (linker (positions not given here) via trimesic acid; not fully specified (bridges); printed as Tm(GWAYA)Δ(FΦRrRΔ)-BBK) [peptide 13] | 1700 nM | fold decrease in potency against peptide 7 [1]: 2 to 3 fold |
| GAAAA[Dap]F[2Nal]R[dR]R[Dap][βAla][βAla]K (linker (positions not given here) via trimesic acid; not fully specified (bridges); printed as Tm(GAAAA)Δ(FΦRrRΔ)-BBK) [peptide 21] |  | fold lower NEMO-binding affinity against peptide 7 [5]: > 100 fold |
| [dA]GWIY[Dap]F[2Nal]R[dR]R[Dap][βAla][βAla]K (linker (positions not given here) via trimesic acid; not fully specified (bridges); printed as Tm(aGWIY)Δ(FΦRrRΔ)-BBK) [peptide 10] | 2300 nM |  |
| GWIY[Dap]F[2Nal]RRR[Dap][dR][βAla]K (linker N-5-11 via Trimesoyl; not fully specified (N-terminus); printed as Tm(GWIY)Δ(FΦRRRA)-rBK, Bicyclic peptide; D-arginine outside the B ring) [peptide 5] | 1300 nM |  |
| GWIYA[Dap]F[2Nal]R[dR]A[Dap][βAla][βAla]K (linker (positions not given here) via trimesic acid; not fully specified (bridges); printed as Tm(GWIYA)Δ(FΦRrAΔ)-BBK) [peptide 19] | 1200 nM |  |
| GWIYA[Dap]FAR[dR]R[Dap][βAla][βAla]K (linker N-6-12 via Trimesoyl; not fully specified (N-terminus); printed as Tm(GWIYA)Δ(FARrRΔ)-BBK, Alanine-scan variant of peptide 7) [peptide 16] | 2800 nM |  |
| GWIY[Dap]F[2Nal]R[dR]R[Dap][βAla][βAla]K (linker (positions not given here) via trimesic acid; not fully specified (bridges); printed as Tm(GWIY)Δ(FΦRrRΔ)-BBK) [peptide 6] | 5900 nM |  |
| GWIYA[Dap]F[2Nal]R[dR]R[Dap][βAla][βAla]K (linker (positions not given here) via trimesic acid; not fully specified (bridges); printed as Tm(GWIYA)Δ(FΦRrRΔ)-BBK; also: FITC label, site not given here) [fluorescently labeled peptide 7] |  | Kd [6]: 220 nM |
| GWIY[Dap]F[2Nal]RRR[Dap][βAla][βAla]K (linker (positions not given here) via trimesic acid; not fully specified (bridges); printed as Tm(GWIY)Δ(FΦRRRΔ)-BBK) [peptide 2] | 3400 nM | IC50 [7]: 3400 to 28000 nM |
| GWIY[Dap]F[2Nal]RRRR[Dap][βAla][βAla]K (linker (positions not given here) via trimesic acid; not fully specified (bridges); printed as Tm(GWIY)Δ(FΦRRRRΔ)-BBK) [peptide 3] | 1500 nM |  |

Now from value to binder, other results behind:

| IC50 [2] | Binder | also measured |
| --- | --- | --- |
| 3000 nM | GAIYA[Dap]F[2Nal]R[dR]R[Dap][βAla][βAla]K (linker (positions not given here) via trimesic acid; not fully specified (bridges); printed as Tm(GAIYA)Δ(FΦRrRΔ)-BBK) [peptide 12] | fold decrease in potency against peptide 7 [1]: 2 to 3 fold |
| 1900 nM | GWIYA[Dap]A[2Nal]R[dR]R[Dap][βAla][βAla]K (linker (positions not given here) via trimesic acid; not fully specified (bridges); printed as Tm(GWIYA)Δ(AΦRrRΔ)-BBK) [peptide 15] |  |
| 16000 nM | GAIAA[Dap]F[2Nal]R[dR]R[Dap][βAla][βAla]K (linker (positions not given here) via trimesic acid; not fully specified (bridges); printed as Tm(GAIAA)Δ(FΦRrRΔ)-BBK) [peptide 20] | fold lower NEMO-binding affinity against peptide 7 [5]: 16 fold |
| 1100 nM | GWIYA[Dap]F[2Nal]A[dR]R[Dap][βAla][βAla]K (linker (positions not given here) via trimesic acid; not fully specified (bridges); printed as Tm(GWIYA)Δ(FΦArRΔ)-BBK) [peptide 17] |  |
| 1200 nM | AWIYA[Dap]F[2Nal]R[dR]R[Dap][βAla][βAla]K (linker (positions not given here) via trimesic acid; not fully specified (bridges); printed as Tm(AWIYA)Δ(FΦRrRΔ)-BBK) [peptide 11] |  |
| 2900 nM | GWIY[dA][Dap]F[2Nal]R[dR]R[Dap][βAla][βAla]K (linker N-6-12 via Trimesoyl) [peptide 8] |  |
| 1800 nM | GWIY[Dap]F[2Nal]RRR[Dap]R[βAla]K (linker N-5-11 via Trimesoyl; not fully specified (N-terminus); printed as Tm(GWIY)Δ(FΦRRRA)-RBK, Bicyclic peptide; 4th arginine outside the B ring) [peptide 4] |  |
